Here are results for two sequences from US6528098B2, “Preparation of a therapeutic composition” (Advanced Viral Research Corp., priority 1996, dated 2003).

Entries after “also recorded” stand apart in the source; their conditions may differ. No end group written: not given here.

The target in one series is T1, proteinase K (Parengyodontium album, UniProt P06873).
T1 construct: purchased ICN Biochemicals
Briefly: Treatment of Product R with proteinase K, SDS-PAGE on a 16% gel, silver stain. The following applies: for Sensitivity of the Peptide Components of Product R (SDS-PAGE): Proteinase K (800 μg/ml) / change of silver stained bands after proteinase K treatment: 800 μg/ml proteinase K, one hour. It counts as physicochemical. Also noted: key to Sensitivity of the Peptide Components of Product R (SDS-PAGE): Proteinase K (100 μg/ml) / Sensitivity of the Peptide Components of Product R (SDS-PAGE): Proteinase K (800 μg/ml): “−” represents no substantial alteration of the stainable bands; “+” represents substantial alteration of the stainable bands. As to the method:
The biochemical properties of the peptides: Some biochemical properties of the silverstainable peptide components of Product R are analyzed using various catabolic enzymes, as described below:
The treatment with proteinase K (ICN Biochemicals): Proteinase K is a non-specific broad spectrum protease that cleaves peptide bonds at the C-terminal of aliphatic, aromatic and hydrophobic amino acids. It may cleave all serum peptides completely at 50 μg/ml within one hour. […]
A summary of the above described treatments by catabolic enzymes is provided in the following TABLE III, and the results of the treatment are shown in FIG. 5, wherein “−” represents no substantial alteration of the stainable bands and “+” represents substantial alteration of the stainable bands.

For series [1], the system named is IL-8 secretion by U937 cells. Briefly: IL-8 secretion by cultured U937 cells, ELISA. It counts as cell-based, human. The conditions noted are these: for production of interlukin-8 (IL-8) in U937 cells: general statement; for up-regulation of IL-8 secretion compared with Product R: peptide solutions 2 mg/ml, equimolar mixture 4 mg/ml, final concentration 10% in culture media, FIG. 20. As for the experimental part: Ammonium sulfate precipitation of Product U peptides: Product U samples are lyophilized and re-dissolved in 20% of original sample volume in water (5X concentrated). Ammonium sulfate crystals are added to the solution to reach 60% ammonium sulfate saturation (390 mg/ml solution). Gentle mixing solubilizes crystals. Protein precipitates appear after 30 mm to 1 hr incubation on ice and is centrifuged at 16,000×g for 30 min. at […]. The pellet is dissolved in 5% of original sample volume in water. The solution is desalted by gel filtration chromatography through a column of BioGel P-2. The column is eluted with 0.1X phosphate buffered saline (PBS). Only protein containing fractions are pooled and lyophilized.
Separation and isolation of two major neptide of Product R by gel ruhranon chromatography: A BioGel P-10 column (1.6 cm×52 cm) was equilibrated with 0.1X concentration of PBS. Two ml of 2X concentrated Product R was applied to the column, which was eluted with the same buffer at a flow rate of 25 mI/hr. Four mm. fractions were collected. All protein-containing fractions are analyzed by Sodium dodecyl sulfate polyacrilamide gel electrophoresis (SDS-PAGE). Fraction, containing primarily peptide A and peptide B are pooled separately and lyophilized. Peptide A pool contains very little contamination of the other peptide, however, the peptide B pool is highly enriched but still contains peptide A as a major contaminant. A reasonable estimate of peptide purity in the pools is >90% for peptide A and >75% for peptide B.
U937 cell culture: The U937 human hystiocytic lymphoma cell line was purchased from the American Type Culture Collection. Cells were thawed and maintained in logarithmic growth (5-9×10^5 cells/mL) in RPMI 1640 culture medium, supplemented with 10% fetal bovine serum, heat inactivated at 56° C. for 30 min, 2mM L-glutamine and 1x Penicillin-Streptomycin.
Product R or isolated peptide treatment: Cells (1.0×10^5/ml) are cultured in growth medium containing Product R, isolated purified peptide solution, mixed peptides solution or Dulbecco's PBS for 2 days. Following centrifugation, the culture supernatants are analyzed using chemokine ELISA kits. Final concentration of Product R in the culture medium was 10% (v/v). The ammonium sulfate precipitated peptides were reconstituted in culture medium to yield a 10 mg/ml solution. Two 2-fold dilutions were prepared, also using culture medium as diluent. These solutions were used at a final concentration of 10% in the U937 cell culture. The individual lyophilized peptides were reconstituted in endotoxin-free water to yield 2 mg/ml solutions (which is the approximate concentration of each peptide in Product R). An equimolar mixture of both peptides was prepared at a final concentration of 4 mg/ml. Both were used at a final concentration of 10% in the culture media for the assays.
Measurement of secreted IL-8 and MCP-1: The concentrations of IL-8 and MCP-1 in the culture supernatants are assayed by ELISA, using human IL-S ELISA kits (Endogen. Inc.) and Quantikine human MCP-1 ELISA kits (R&D Systems, Inc.), respectively, according to manufacturer's instructions (with slight modifications for the MCP-1 ELISA). […] Absorbances are measured on a PowerWave 200 Microplate Scanning Spectrophotometer. Dilutions of the standard protein supplied by each manufacturer are utilized to generate a four-parameter logistic fit standard curve, and the concentration of chemokine in each supernatant is determined by extrapolation.
(ELISA stands for enzyme-linked immunosorbent assay.)

T1 sequence (P06873 106-384): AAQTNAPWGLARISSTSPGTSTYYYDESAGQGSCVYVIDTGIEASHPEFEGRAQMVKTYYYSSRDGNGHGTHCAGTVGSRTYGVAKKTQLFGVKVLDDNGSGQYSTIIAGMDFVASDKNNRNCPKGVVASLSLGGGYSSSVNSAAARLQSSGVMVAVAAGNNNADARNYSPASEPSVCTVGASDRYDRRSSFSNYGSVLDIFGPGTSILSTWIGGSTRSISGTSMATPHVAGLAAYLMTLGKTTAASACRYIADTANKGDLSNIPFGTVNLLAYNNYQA

For the sequence “KVLPVPQKAVPYPQRDMPIQAFLLYQEPVLG [Peptide-A, 31-amino-acid long peptide derived from bovine beta-casein, constituent of Product R]”, in the series with proteinase K, the “Sensitivity of the Peptide Components of Product R (SDS-PAGE): Proteinase K (800 μg/ml)” value is “+” and the “change of silver stained bands after proteinase K treatment” value was “disappears”. Also, in series [1], the “production of interlukin-8 (IL-8) in U937 cells” value is recorded as “capable of inducing the production” and the “up-regulation of IL-8 secretion compared with Product R” value was “only elicited a less response”.
As for “GEIPDAGGRIVDYYVGFSDSV (not fully specified (residue 18)) [Peptide-B, 21-amino acid peptide linked at serine 18 through a diphosphodiester group to the 3′-end of an adenylyl (3′-5′) adenosine moiety]”, the “Sensitivity of the Peptide Components of Product R (SDS-PAGE): Proteinase K (100 μg/ml)” value with proteinase K (100 μg/ml proteinase K, 40° C., 30 minutes) is recorded as “−”. In the series with proteinase K, the “Sensitivity of the Peptide Components of Product R (SDS-PAGE): Proteinase K (800 μg/ml)” value is on record as “−” and the “change of silver stained bands after proteinase K treatment” value was “no obvious change”. Also, the “production of interlukin-8 (IL-8) in U937 cells” value in series [1] is recorded as “capable of inducing the production; also recorded: contributes more to the activity than peptide-A”. Also, in series [1] (listed as Peptide B), the “up-regulation of IL-8 secretion compared with Product R” value is given as “maintained most of the ability of Product R to up-regulate IL-8 secretion”. The “up-regulation of IL-8 secretion compared with Product R” value in series [1] (listed as peptide-B) is on record as “induces higher levels of secretion of IL-8 or MCP-1 than peptide-A”.
